# Columns and labels:
# [1] = target: recombinant Der f 21 with N-terminal 6x-His-tag (Dermatophagoides farinae) (UniProt B2GM84); assay: SEC-MALS; Superdex S75 increase, 20 mM Tris pH 7.9, 50 mM NaCl; 100 uL loaded at 5 mg/mL
# [2] = target: recombinant Der f 21 with the His-tag cleaved (Dermatophagoides farinae) (UniProt B2GM84); assay: static light scattering; crDer f 21 at 0.25, 1.00 and 1.50 mg/mL
stoichiometry N [1],stoichiometry N [2],Substance
2,–,recombinant Der f 21 with N-terminal 6x-His-tag (from UniProt B2GM84 25-136) (natural protein)
–,2,recombinant Der f 21 with the His-tag cleaved (from UniProt B2GM84 25-136) (natural protein)
